Biological target: T1, CXCR4 receptor (human (endogenous in HEK-293)), P61073
T1 chain: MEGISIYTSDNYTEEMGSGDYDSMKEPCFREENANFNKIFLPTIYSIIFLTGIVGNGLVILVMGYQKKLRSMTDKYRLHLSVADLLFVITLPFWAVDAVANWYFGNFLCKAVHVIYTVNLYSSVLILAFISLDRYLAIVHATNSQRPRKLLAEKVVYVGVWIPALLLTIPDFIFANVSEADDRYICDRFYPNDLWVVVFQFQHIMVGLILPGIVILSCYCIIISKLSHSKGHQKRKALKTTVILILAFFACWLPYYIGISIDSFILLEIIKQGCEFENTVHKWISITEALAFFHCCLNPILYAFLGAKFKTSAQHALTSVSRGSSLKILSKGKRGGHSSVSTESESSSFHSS
Experiment: cross-linking
Settings: remark: other sources report otherwise

stoichiometry N: 2
B1: CXCR4 receptor, P61073 1-352 (receptor)
chain: MEGISIYTSDNYTEEMGSGDYDSMKEPCFREENANFNKIFLPTIYSIIFLTGIVGNGLVILVMGYQKKLRSMTDKYRLHLSVADLLFVITLPFWAVDAVANWYFGNFLCKAVHVIYTVNLYSSVLILAFISLDRYLAIVHATNSQRPRKLLAEKVVYVGVWIPALLLTIPDFIFANVSEADDRYICDRFYPNDLWVVVFQFQHIMVGLILPGIVILSCYCIIISKLSHSKGHQKRKALKTTVILILAFFACWLPYYIGISIDSFILLEIIKQGCEFENTVHKWISITEALAFFHCCLNPILYAFLGAKFKTSAQHALTSVSRGSSLKILSKGKRGGHSSVSTESESSSFHSS

Reference: article PMC2132943
